The data set concerns the molecule itself. Kind of data set: cryo-EM structure; T4aP^Mx filaments purified from the hyperpiliated ΔpilT strain; helical reconstruction, twist 100.7°, rise 10 Å per subunit, 3.0 Å.

B1: major pilin PilA of Myxococcus xanthus (mature PilA, MXAN_5783) (natural protein, UniProt Q59589 13-220, looked up)
chain: FTLIELMIVVAIIGILAAIAIPNFIKFQARSKQSEAKTNLKALYTAQKSFFSEKDRYSDFANEIGFAPERGNRYGYRVSAAAGDCEVRNAADLPVPAAGVPCISNDSFRFGANSAIDDPTPVVARFVPQGAAGWNTTLGVQPTIADCPNCNFFAGARGNADNEATFDDWVIAGFEGSGQVGPCSEAGNVASGTPYNTRNDVACDGAAQ
notes: PilA, major type IVa pilin of Myxococcus xanthus, MXAN_5783; mature pilin of 208 aa after removal of the type III signal peptide by PilD; numbers count on: the mature protein; Assembled as the T4aP filament of thousands of copies; Disulfide bridges C95/C102 and C183/C203; the authors speculate that surface-exposed C150 is post-translationally modified; also called PilA^WT; Mx PilA; source: …
For the protein B1, the binding result was “binds”.

The values are drawn from PMC11046646, “Tight-packing of large pilin subunits provides distinct structural and mechanical properties for the Myxococcus xanthus type IVa pilus” (Proceedings of the National Academy of Sciences of the …, 2024).
